# Experimental data reported in patent CN114044821A (INST MILITARY MEDICINE ACADEMY MILITARY SCIENCES PLA, dated 2022).
# Biological target: 新冠病毒野生型刺突蛋白(S蛋白)，在假病毒/真病毒表面 (SARS-CoV-2, UniProt P0DTC2 14-1273)
# Assay: cell-based or functional assay
binder,measurement,value
"抗SARS-CoV-2全人源单克隆抗体ZWC12 (antibody, V domains shown) VH: EVQLVESGGALVQPGGSLRLSCAASGFTFANYAMSWVRQAPGKGLEWVSSMTGSSIDSYYADSVKGRFTISRDNSRNTLYLQMNSLRAEDTAVYYCAKGELLWFGDLLHNWFDPWGRGTLVTVSS VL: DIVMTQSPATLSVSPGERATLSCRASQSVSTNLAWYQQKPGQAPRLLIHGASTRATGLPARFSGSGSGTEFTLTISSLQSEDFAVYFCQQYDSWPGTFGPGTKVDIKR","假病毒中和 EC50 (luciferase, HEK293T)",1.04 µg/mL
same,"真病毒中和 EC50 (Vero E6, crystal violet)",25 µg/mL
